Results from patent publication US20210355235A1, “Compositions and Methods For Treating Cancer with Anti-Renalase antibodies and Anti-PD1 antibodies” (YALE UNIVERSITY, priority 2017, published 2021).
“Also recorded” adds a separate entry of the source. Like-named read-outs stand apart in the source and are kept apart here.

How the values were obtained:
[1] = system: renalase-1 and renalase-2; experiment: renalase isoform specificity of the antibodies (ELISA / hybridoma screening); assay type: binding, human; details: renalase-1 vs renalase-2
Procedure: Peptides were used as immunogens. The peptides generated ranged from 9 to 21 amino acids and corresponded to regions of the renalase-1 and renalase-2 proteins. […] Each peptide was conjugated to the adjuvant KLH via the cysteine and used to immunize 6 rabbits. Antiserum collected from each animal was screened for anti-renalase antibody titer by ELISA assay using both the relevant peptide (BSA-conjugate) or full length renalase-1 or 2. The antisera were also tested for their ability to detect endogenous renalase in tissue lysates by western blot. Using these screening criteria the animals producing antibodies with the preferred characteristics were selected. In some examples and for some peptides, several animals produced antibodies with the required specificity. […] Polyclonal antibodies raised against all of the peptides were generated by purification of total IgG from terminal bleeds by protein G chromatography followed by further purification on peptide affinity chromatography. Further and using standard procedures, lymphocytes from the spleens of selected animals were fused to myeloma cells for hybridoma generation. The hybridoma supernatants were screened for binding to both the peptides against which they were raised and secondarily screened against whole renalase protein. Selected hybridomas were sub-cloned and expanded for antibody purification. The monoclonal antibodies were purified from conditioned hybridoma culture supernatant by protein A affinity chromatography.

A375.S2 melanoma cells = experiment: cell viability, WST-1 assay; assay type: cell-based, human; details: WST-1, 72 hrs
Procedure: FIG. 19, comprising FIGS. 19A through 19D, is a series of images and charts showing that inhibition of RNLS signaling is cytotoxic to melanoma cells in vitro. […] FIG. 19B comprises two charts depicting relative cell viability: Left panel: Cells were treated with indicated antibodies for 72 hrs and cell viability was determined using WST-1; m28-RNLS (also known as 1D-28-4), m37-RNLS (also known as 1D-37-10): monoclonal antibodies raised against RNLS peptide RP220; Right panel: A375.S2 cells treated with increasing doses of m28-RNLS for 72 hrs and cell viability determined with a WST-1 assay; n=6, * indicates p<0.05 and ** indicates p<0.005. FIG. 19C comprises representative photos of A375.S2, SkMel28, and SkMel5 after 72 hrs incubation with either control rabbit IgG or m28-RNLS. FIG. 19D is a chart depicting relative cell viability, comprising amino acid (AA) sequence of RNLS peptide antagonist (RP220A).
(§1) Total cell number and percentage of live cells were assessed by trypan blue exclusion, and cells were counted using a BioRad TC10 automated cell counter. For additional studies, cell viability was determined using WST-1 reagent (Roche Diagnostics, Indianapolis, Ind., USA) according to the manufacturers' instruction. Absorbances were read using a microplate reader (Power Waves XS, BioTek Instruments, Winooski, Vt., USA).

melanoma cell lines = experiment: melanoma cells in culture, viability / growth; assay type: cell-based, human
Procedure: as §1

Panc1 cells = experiment: western blot of p38 and STAT3 phosphorylation; assay type: cell-based, human
Text: FIG. 27, comprising FIGS. 27A through 27E, is a series of images and charts showing the interaction between RNLS and STAT3, and the mechanistic model of inhibition by m28-RNLS. FIG. 27A is an image showing activation of STAT3 by RNLS in Panc1 cells; Panc1 cells in culture treated with either BSA or RNLS, and STAT3 phosphorylation assessed by western blot; p-Ser^727-STAT3: phosphorylation at serine 727, p-Y^705-STAT3: phosphorylation at tyrosine 705; representative study. FIG. 27B is a chart depicting the quantification of STAT3 phosphorylation with RNLS; signals normalized to total STAT3; n=3, *=P<0.05. […] FIG. 27D is a chart showing the quantification of STAT3 phosphorylation with m28-RNLS; signals normalized to GAPDH loading control; n=3, *=P<0.05. FIG. 27E depicts the proposed mechanistic model for antitumor activity of m28-RNLS.

BxPC3 xenografted tumors = experiment: BxPC3 pancreatic xenograft in athymic nude mice; assay type: in vivo, mouse
Procedure: Immunohistochemistry was performed as described previously (Guo et al., 2012 Cancer Science. 103(8):1474-80). Briefly tumor tissues were formalin-fixed, paraffin-embedded and cut into 5-m sections on glass slides. The slides were de-paraffinized and hydrated, followed by antigen retrieval in a pressure cooker containing 10 mM sodium citrate, pH6 buffer. The sections were blocked in 3% hydrogen peroxide for 30 min and 2.5% normal horse serum in PBS/0.1% Tween20 for 1 h followed by incubation with primary antibody and isotype control IgG overnight at 4° C. The following antibodies were used in this study: m28-RNLS at 500 ng/ml; goat polyclonal anti-RNLS at 250 ng/ml (Abcam, AB31291); rabbit monoclonal anti Ki67 (Vector Lab, VP-RM04, 1:100); rabbit monoclonal anti p21 and phspho-Tyr^705-Stat3 (Cell Signaling Technologies, #2947, 1:100 and #9145, 1:400, respectively). ImmPRESS peroxidase-anti-rabbit IgG (Vector Laboratories, Burlingame, Calif., USA) was used to detect primary antibodies. The color was developed using a Vector DAB substrate kit and counterstained with hematoxylin (Vector Laboratories). Slides were observed and photographed using an Olympus BX41 microscope and camera (Olympus America Inc, Center Valley, Pa., USA).
Female athymic, 18-20 g nude mice (nu/nu) were obtained from Charles River (Willimantic, Conn.) and housed in microisolator cages, with autoclaved bedding in a specific pathogen-free facility, with a 12-h light/dark cycle.
Xenograft tumors were established by subcutaneous injection of BxPC3 cells (2×10^6 in 100 μl of PBS, pH 7.6). When the tumors reached a volume of 50-100 mm^3, the mice were divided a control group (n=14 treated with rabbit IgG, 40 μg by intraperitoneal injection (IP)), and an experimental group (n=14) that received m28-RNLS (40 μg IP, every 3 days). Tumor size was measured with digital calipers and volume was calculated according to the formula (length×width^2)×π/2. In another group of animals (n=6 each) sh-RNLS or sh-Control Panc1 cells (2×10^6 in 100 μl of PBS, pH 7.6) were injected subcutaneously. These animals received no further treatments, and tumor size and volume were measured for up to 30 days.
At the end of the study, the mice were sacrificed, the tumors were excised and immediately snap-frozen in liquid nitrogen and stored at −80° C. Apoptosis was examined using the TUNEL assay (Roche in situ Apoptosis Detection System), according to the manufacturer's instructions. Sections were examined by light microscopy and the apoptosis index was determined by counting ≥1000 cells in 5 randomly selected high-power fields (×200 magnification).

B1: m28-RNLS: rabbit anti-renalase monoclonal raised against RNLS peptide RP-220; heavy chain SEQ ID NO:9, light chain SEQ ID NO:10 (antibody)
heavy: METGLRWLLLVAVLKGVQCQSVEESGGRLVTPGTPLTLTCTVSGFSLSSFAVGWVRQAPGKGLEYIGIISSVGITRYASWAAGRFTISKTSTTVDLKITSPTTEDTATYFCARYGYSGDVNRLDLWGQGTLVTVSSGQPKAPSVFPLAPCCGDTPSSTVTLGCLVKGYLPEPVTVTWNSGTLTNGVRTFPSVRQSSGLYSLSSVVSVTSSSQPVTCNVAHPATNTKVDKTVAPSTCSKPTCPPPELLGGPSVFIFPPKPKDTLMISRTPEVTCVVVDVSQDDPEVQFTWYINNEQVRTARPPLREQQFNSTIRVVSTLPIAHQDWLRGKEFKCKVHNKALPAPIEKTISKARGQPLEPKVYTMGPPREELSSRSVSLTCMINGFYPSDISVEWEKNGKAEDNYKTTPAVLDSDGSYFLYSKLSVPTSEWQRGDVFTCSVMHEALHNHYTQKSISRSPGK
light: MDTRAPTQLLGLLLLWLPGATFAQVLTQTASPVSAAVGGTVTINCQASQSVYDNNNLAWYQQKPGQPPKQLIYGASTLASGVSSRFKGSGSGTQFTLTISGVQCDDAATYYCLGEFSCSSADCFAFGGGTEVVVKGDPVAPTVLIFPPSADLVATGTVTIVCVANKYFPDVTVTWEVDGTTQTTGIENSKTPQNSADCTYNLSSTLTLTSTQYNSHKEYTCKVTQGTTSVVQSFNRGDC
modifications: 1D-28-4 full length heavy chain amino acid; 1D-28-4 full length light chain amino acid
[1]
  renalase-type specificity: recognize renalase-1 and renalase-2
A375.S2 melanoma cells
  cell viability: increasing levels of cytotoxicity in correlation with increasing treatment concentrations
Melanoma cell lines
  melanoma cell viability / growth in culture: decreased the viability of all (total of 5) melanoma cell lines tested
Melanoma cell lines; listed as 1D-28-4
  melanoma cell viability / growth in culture: inhibits melanoma cells in culture
Panc1 cells; beginning at day 1 post treatment
  p38 MAPK phosphorylation: sustained phosphorylation
Panc1 cells; up to 4 days
  STAT3 phosphorylation (p-Y705-STAT3) after antibody: long-lasting and sustained decrease; also recorded: inhibits STAT3 phosphorylation
BxPC3 xenografted tumors; mouse, in vivo
  decrease in Ki67 expression vs IgG: 2.5 fold
  increase in apoptosis (TUNEL staining) vs IgG: ~2 fold
  increase in p21 expression vs IgG: ~4 fold
BxPC3 xenografted tumors; n=14
  p21 positive cells: 178.1 ± 11.4 positive cells/high power field
BxPC3 xenografted tumors; n=14, IgG 14.8±2.3
  TUNEL positive cells (apoptosis): 28.4±3.3 positive cells/high power field
BxPC3 xenografted tumors; n=14, IgG 340.2±11.9
  Ki67 positive cells: 137.1±14.9 positive cells/high power field
BxPC3 xenografted tumors; vs rabbit IgG, up to 3 weeks, 40 μg IP every 3 days
  tumor volume: inhibited PDAC growth; also recorded: significant decrease in tumor volume
